Measurements: article PMC9537594

Assays:
[1] = biological target: cross-linked His-CAhex, 6-His-CA(A14C/E45C/W184A/M185A) (HIV-1); assay: SPR; Reichert 4-SPR; cross-linked His-CAhex immobilised on an NTA chip via the C-terminal His-tag; peptides 3.9 µM to 2 mM; 0.01 M HEPES pH 7.4, 0.15 M NaCl, 0.05% Surfactant P20; Scrubber 2.0, simple kinetic model
[2] = biological target: Cross-linked His-CAhex: disulfide-stabilized hexamer of 6-His-CA(A14C/E45C/W184A/M185A) (HIV-1); assay: SPR; Reichert 4-SPR; cross-linked His-CAhex immobilised on an NTA chip via the C-terminal His-tag; peptides 3.9 μM to 2 mM; 0.01 M HEPES pH 7.4, 0.15 M NaCl, 0.05% v/v Surfactant P20; simple kinetic model

B1: SEC24C228-242 peptide (peptide)
peptide: GPLLPGQSFGGPSVS
Kd [1]: 1070 µM

B2: SEC24C_(228-242) 15-mer FG peptide (peptide)
peptide: GPLLPGQSFGGPSVS
Kd [2]: 1070 µM

B3: NUP1531409-1423 peptide (peptide)
peptide: NSPSGVFTFGANSST
Kd [1]: 131 µM
